Measured values as given in paper PMC5643300.

Key:
[1] = molecular target: MOSP expressed in E. coli with a PelB signal sequence (Treponema denticola); assay: native gel or EMSA; BN-PAGE and immunoblot of the 2% DDM extract of the outer membrane fraction of E. coli expressing PelB-MOSP
[2] = molecular target: MOSP^C, C-terminal domain of the major outer sheath protein (recombinant, refolded) (Treponema denticola); assay: negative-stain TEM of nanodiscs; MOSP^C refolded in DDM and incorporated into large MSP1E3D1 (E3D1) DMPC nanodiscs; SEC peak fractions, uranyl formate stain, averaged images
[3] = molecular target: MOSP^C, C-terminal domain of the major outer sheath protein (recombinant, refolded) (Treponema denticola); assay: SEC + other: negative-stain TEM of nanodiscs; MOSP^C incorporated into small D7 DMPC nanodiscs, S200 column, Tris-NaCl buffer pH 7.5; peaks examined by SDS-PAGE and TEM
[4] = molecular target: major outer sheath protein, native outer membrane conformer (Treponema denticola ATCC 35405 (endogenous)); assay: SDS-PAGE without boiling, immunoblot; NP-40 supernatant (OM conformer) and TX-114 aqueous phase (periplasmic conformer) of T. denticola in Laemmli buffer, with and without boiling; antisera to MOSP^Fl, PrtP, PrcA1, PrcA2, PrcB
[5] = molecular target: major outer sheath protein, native outer membrane conformer (Treponema denticola ATCC 35405 (endogenous)); assay: SDS-PAGE without boiling, immunoblot; 2% DDM-solubilized pellet of sonicated T. denticola, run with and without boiling, anti-MOSP^Fl; TX-114 phase partitioning of the same material
[6] = molecular target: major outer sheath protein, native periplasmic conformer (Treponema denticola ATCC 35405 (endogenous)); assay: SDS-PAGE without boiling, immunoblot; NP-40 supernatant (OM conformer) and TX-114 aqueous phase (periplasmic conformer) of T. denticola in Laemmli buffer, with and without boiling; antisera to MOSP^Fl, PrtP, PrcA1, PrcA2, PrcB
[7] = molecular target: major outer sheath protein, native periplasmic conformer (Treponema denticola ATCC 35405 (endogenous)); assay: SDS-PAGE without boiling, immunoblot; 2% DDM-solubilized pellet of sonicated T. denticola, run with and without boiling, anti-MOSP^Fl; TX-114 phase partitioning of the same material

MOSP expressed in E. coli with a PelB signal sequence (natural protein)
stoichiometry N [1]: 3

MOSP^C, C-terminal domain of the major outer sheath protein (recombinant, refolded) (domain or fragment)
stoichiometry N [2]: 3 | stoichiometry N [3]: 3

major outer sheath protein, native outer membrane conformer (natural protein)
stoichiometry N [4]: 3 | stoichiometry N [5]: 3

major outer sheath protein, native periplasmic conformer (natural protein)
stoichiometry N [6]: 3 | stoichiometry N [7]: 3
